{
  "source": "the nanobody polyreactivity screen of Harvey et al. (2022)",
  "data": [
    {"assay": "yeast display, Sf9 membrane polyspecificity reagent, FACS + sequencing; frameworks hold sequencing errors", "how_it_was_run": "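Nanobodies from a synthetic yeast display library (Saccharomyces cerevisiae BJ5465), induced 36–48 hours with galactose, were stained 1 hour at 4 °C with 10% biotinylated, detergent-solubilized Sf9 membrane reagent, enriched on streptavidin microbeads, then FACS-sorted. Anti-HA (expression) and streptavidin (reagent binding) fluorescence set low and high (top ~1%) gates. Polyreactivity labels come from the gate of origin. Genes were colony-PCR amplified, MiSeq 2 × 250 sequenced and filtered by CDR length.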", "values": [
      {"sequence": "QVQLVESGGGLVQAGGILRLSCAASGLIIGEYDMGWYRQAPGKERELVAAMSDRGTSTYYADSVKGRFTISRDNAKNTVDLPMNSLKPEDTAVYYCATDRIYYYSWEYDYWGQGTQVTVSS", "polyreactivity (PSR sort gate)": "low polyreactivity"},
      {"sequence": "QVQLVESGGGLVQAGGILRLSCAASGLTFEQYAMGWYRQAPGKERELVAAISWSGGRTYYADSVKGRFTISRDNAKNTVYLQMNSLKPEDTAVYYCAKDRGCPFYWRYPLGYWGQGTQVTVSS", "polyreactivity (PSR sort gate)": "high polyreactivity"},
      {"sequence": "QVQLVESGGGLVQAGGILRLSCAASGNIFAFYAMGWYRQAPVKERELVAAITDGTTTNYADSVKGRFTISRDNAKNTVYLQMNSLIPEDTAVYYSAADTGWWPWLERFRHYYYWGQGTQVTVSS", "polyreactivity (PSR sort gate)": "low polyreactivity"},
      {"sequence": "QVQLVESGGGLVQAGGILRLSCAASGRIFCSYAMGWYRQAPGKERELVAAITRGASTNYADSVKGRFTISRDNAKNIVYLQMNSLKPEDTAVYYCAAGWGRYPILGYYYWGQGTQVTVSS", "polyreactivity (PSR sort gate)": "high polyreactivity"},
      {"sequence": "QVQLVESGGGLVQAGGILRLSCAASGRIFGPYTMGWYRQAPGKEREFVAAISRSGDSTYYADSVKGRFTISRDNAKNTVYLQMNSLKPEDTAVYYCAAKYGTRLSAYYYWGQGTQVTVSS", "polyreactivity (PSR sort gate)": "high polyreactivity"},
      {"sequence": "QVQLVESGGGLVQAGGILRLSCAASGRIFQHYPMGWYRQAPGKERELVAAISRSGDSTYYADSVKGRFTISRDNAKNTVYLQMNSLKPEDTAVYYCKIVRYSFLYDSWGQGTQVTVSS", "polyreactivity (PSR sort gate)": "high polyreactivity"},
      {"sequence": "QVQLVESGGGLVQAGGILRLSCAASGRIFSYYAKGWYRQAPGKERELVAAITRGGSTNYADSVKGRFTISRDNAKNSVYLQMNSLKPEDTAVYYFAVRGGYTGPTYNYWGQGTQVTVSS", "polyreactivity (PSR sort gate)": "high polyreactivity"},
      {"sequence": "QVQLVESGGGLVQAGGILRLSCAASGRTFGGNAIGWYRQAPGKERELVAAITVSAGHTYYADSVKGRFTISRDNAKNTVYLQMNSLKPEDTAVYYCAAGVPYYWSYVWKHPRFDHWGQGTQVTVSS", "polyreactivity (PSR sort gate)": "low polyreactivity"},
      {"sequence": "QVQLVESGGGLVQAGGILRLSCAASGRTFGINAMGWYRQAPGKERELVARIRKTVGSTYYADSVKGRFTISRDNAKNTVYLQMNSLKPEDTAVYYCAADLRYGYLYPYDSWGQGTQVTVSS", "polyreactivity (PSR sort gate)": "high polyreactivity"},
      {"sequence": "QVQLVESGGGLVQAGGILRLSCAASGRTFGIYVMGWYRQAPGKERELVAAIRSGGTTNYADTVKGRFTISRDNAKNTVYLKMNSLKPEDTAVYYCAASSRRSWTYDYWGQGTQVTVSS", "polyreactivity (PSR sort gate)": "high polyreactivity"},
      {"sequence": "QVQLVESGGGLVQAGGILRLSCAASGRTFGLYAMGWYRQAPGKERELVASITRSGVSTTYADSVKGRFTISRDNAKNTVYLQMNSLKPVDTAVYYCNTDYTGPDGTDEYDYWGQGTQVTVSS", "polyreactivity (PSR sort gate)": "low polyreactivity"},
      {"sequence": "QVQLVESGGGLVQAGGILRLSCAASGRTFRIYAMGRYRPAPAKVREFVAGITRSDGSTYYADSVKGRFTISRDNAKNTVSFQMNSLKPVDTEVYYCYVEPYSHYRRTEDYWGQGTEVTVSS", "polyreactivity (PSR sort gate)": "high polyreactivity"},
      {"sequence": "QVQLVESGGGLVQAGGILRLSCAASGRTFSSNAMGWYRQAPGKERELVAVISSGGSTYYADSVNGRFTISRDNAKNTVYLQLNSLKPEDTAVYYCAAAGGPSGYYYESDYWGQGTQVTVSS", "polyreactivity (PSR sort gate)": "high polyreactivity"},
      {"sequence": "QVQLVESGGGLVQAGGILRLSCAASGRTFVRNTMGWYRQAPGKERELVAVISRSGGSTYYADSVKGRFTISRDNAKNTVYLQMNRLKPEDTAVYYCNADTYSAGDYWGQGSQVTVSS", "polyreactivity (PSR sort gate)": "high polyreactivity"},
      {"sequence": "QVQLVESGGGLVQAGGILRLSCAASGRTFYYYAMGWYRHERGKERELVAAISISGGTNYADSVKGRFTISRDNAKNTVYLQMNSLKPEDTAVYYCAAYLRHESPSIWDRYDYWGQGTQVTVSS", "polyreactivity (PSR sort gate)": "low polyreactivity"},
      {"sequence": "QVQLVESGGGLVQAGGILRLSCAASGRTIDHYAKGSYRKAPGKERELVAAISTTGGSTYYADSVKGRFTISRDNAKNTVYLQMNSLKPADTAVYYCAARGLRTGGYWGQGTQVTVSS", "polyreactivity (PSR sort gate)": "high polyreactivity"},
      {"sequence": "QVQLVESGGGLVQAGGILRLSCAASGRTLDYSAMGWYRQAPGKERELVASITSGGSTNYADSVKGRFTISRDTAKNTVYLQMNSLKPEDTEVYYCAADSAFYRDVKSNYWGQGTQVTVSS", "polyreactivity (PSR sort gate)": "low polyreactivity"},
      {"sequence": "QVQLVESGGGLVQAGGILRLSCAASGRTYGGYAMGWYRQAPGKERELVASITSTGGTHYSDSVKGRFTISRDNAKNTVYLQMNSLKPEDTAVYYFAAGYYYWKYDYWGQGTQVTVSS", "polyreactivity (PSR sort gate)": "high polyreactivity"},
      {"sequence": "QVQLVESGGGLVQAGGILRLSCAASGSIFGSYAMGWYRQAPGKERELVAGITYRGSSTYYADSVKGRFTISRDNAKNTVYLQMNSLKPEDTAVYYCAADPVFDEYDYWGQGTQVTVSS", "polyreactivity (PSR sort gate)": "low polyreactivity"},
      {"sequence": "QVQLVESGGGLVQAGGILRLSCAASGSIFRVYAMGWYRQAPGKVRELVASISRRGGSTYYADSVKGRFTISRDNAKNTVYLQMNSLKPEDTAVYYCAATTYSGFDYCGQGTQVTVSS", "polyreactivity (PSR sort gate)": "high polyreactivity"},
      {"sequence": "QVQLVESGGGLVQAGGILRLSCAASGSIFSSYGMGRYRQAPGKERELVAAITRGGGSTYYADSVKGRFTISRDNAKNTVYLQMNSLKPEDTAVYYCAARGWRYSYTSVLFDYWGQGTQVTVSS", "polyreactivity (PSR sort gate)": "high polyreactivity"}
    ]}
  ]
}
